This note sets out measurements from the DeepSol protein solubility set.

The nature of this data set: soluble on expression in E. coli; label from the status in PepcDB or PDB records.
As for “MSLTNITQCKNRRCGGELGDFTGYIESPNYPGNYPANTECTWTINPPPKRRILIVVPEIFLPIEDDCGDYLVMRKTSSSNSVTTYETCQTYERPIAFTSRSKKLWIQFKSNEGNSARGFQVPYVTYDEDYQELIEDIVRDGRLYASENHQEILKDKKLIKALFDVLAHPQNYFKYTAQESREMFPRSFIRLLRSKVSRFLRPYKEGHHHHHH”, the “soluble on expression in E. coli” value is “not soluble”.

Consider “MSLKKKTTLSEEDQALFRQLMAGTRKIKQDTIVHRPQRKKISEVPVKRLIQEQADASHYFSDEFQPLLNTEGPVKYVRPDVSHFEAKKLRRGDYSPELFLDLHGLTQLQAKQELGALIAACRREHVFCACVMHGHGKHILKQQTPLWLAQHPHVMAFHQAPKEYGGDAALLVLIEVEEWLPPEGHHHHHH”, for which the “soluble on expression in E. coli” value was “soluble”.

Turning to “GMATEKYHEILKKYFLSFETGDFSQVQFSCNLEFLSPISGNTLKGTEEVIPFLKGVTTRVAEVNIMSTTVEYPRASGVWQMRTTKGTLYTLHNFFRLDEEGIVYVWPMFDPKAVMENPDALIQWLTGKDY”, the “soluble on expression in E. coli” value was “soluble”.

For the sequence “MSKLPMLSQNPENIKILHTAADFRYELLKQIENAQQRIYIVALYLENDDAGREIFTALYEAKQKNPTLDINVLVDWHRAQRGLIGAEKSDGNAALYREFSEKYEHSINVLGVPVRNKEVFGVLHLKGFIFDDTVVYSGASLNDVYLAHKDKYRFDRYHVLNNALLANSMVSFIKKTLIASPAVNCLSQQNRPDTKSLKPEIKELRKQLGLANYQFTSQTRKEGEVGITPLVGLGRKGNKLNNYIRTLLASATSEITICTPYFNFPKPIAKELKKALRRGVKVTIIVGDKTANDFYISPEEEFKTIAGLPYLYEINLRNFAKANETYIASRQLSLNLWKHENNSFHLKGMWVDKEYTLITGSNLNPRAWKLDLENGLLLQDPEQLLVDTKQAELDVILEHTQLIGSYKQVDKLDSYPVEVKKLIKRIKRIKADHILNQILLEHHHHHH”, the “soluble on expression in E. coli” value was “soluble”.

As to “MGSDKIHHHHHHMKLICSKANLLKGVNIVSKAVPTRTTMAILECILIDASANEIKLMANDMELGIETIIDGTIEERGIIALDAKIFSEIVRKLPDNDVTIETDASFKTVISCEKAKFNIIGKSGDDFSYIPYVERNESIVLSQFTLKEVIRQTIFSIADNDNNKLMTGELFEIEENKLRVVSLDGHRISIRYIEMKNHYDSKKVVVPGKTLQEISKIIPGSADEDVVIYITNNHIVFEFENTTVVSRLIEGEYFKIDQMLSSDYDTKVRINKRELLDCIDRATLLVKEGDKKPIIMNITDGNMELRINSFIGSMNEDIDIDKDGKDIMIGFNPKFFIDALRVIDEEEVNLYMVNPKAPCFIKDDEGKFIYLILPVNFNTAAN”, the “soluble on expression in E. coli” value is “not soluble”.

For “MSSITKSRSTKKLSQVIVEQLIETIQSGEFKIGEKIPTELELIEQFDVSRSVIREAITELRSLGFVETRHGIGTFVKEQNIEQNFLLSNASLETINDIVALLELRISLESEAVFLASERRKNKHLEKMKIALNDFEAHISSGENDGTVKADYDFHIAIAEASGNQYFVDFLKYLGEKIIPRARVKSIEQSPENREEYLKTVHHDHVNIYNAILDQDGLLARQMMRAHLSKSIKKFKQ”, the “soluble on expression in E. coli” value is on record as “not soluble”.

“SKFDKLNKAYEQIKSDYYQKTDDDKLVDGAIKGMIQSLDDPYSTYMDQEQAKSFDETISASFEGIGAQVEEKDGEILIVSPIKGSPAEKAGIKPRDQIIKVNGKSVKGMNVNEAVALIRGKKGTKVKLELNRAGVGNIDLSIKRDTIPVETVYSEMKDNNIGEIQITSFSETTAKELTDAIDSLEKKGAKGYILDLRGNPGGLMEQAITMSNLFIDKGKNIMQVEYKNGSKEVMKAEKERKVTKPTVVLVNDGTASAAEIMAAALHESSNVPLIGETTFGKGTVQTAKEYDDGSTVKLTVAKWLTADGEWIHKKGIKPQVKAELPDYAKLPYLDADKTYKSGDTGTNVKVAQKMLKALGYKVKVNSMYDQDFVSVVKQFQKKEKLNETGILTGDTTTKLMIELQKKLSDNDTQMEKAIETLKK”: the “soluble on expression in E. coli” value is listed as “not soluble”.

For the sequence “MAFPAGFGWAAATAAYQVEGGWDADGKGPCVWDTFTHQGGERVFKNQTGDVACGSYTLWEEDLKCIKQLGLTHYRFSLSWSRLLPDGTTGFINQKGIDYYNKIIDDLLKNGVTPIVTLYHFDLPQTLEDQGGWLSEAIIESFDKYAQFCFSTFGDRVKQWITINEANVLSVMSYDLGMFPPGIPHFGTGGYQAAHNLIKAHARSWHSYDSLFRKKQKGMVSLSLFAVWLEPADPNSVSDQEAAKRAITFHLDLFAKPIFIDGDYPEVVKSQIASMSQKQGYPSSRLPEFTEEEKKMIKGTADFFAVQYYTTRLIKYQENKKGELGILQDAEIEFFPDPSWKNVDWIYVVPWGVCKLLKYIKDTYNNPVIYITENGFPQSDPAPLDDTQRWEYFRQTFQELFKAIQLDKVNLQVYCAWSLLDNFEWNQGYSSRFGLFHVDFEDPARPRVPYTSAKEYAKIIRNNGLEAHL”, the “soluble on expression in E. coli” value is “soluble”.

Take “MVFFTCNACGESVKKIQVEKHVSNCRNCECLSCIDCGKDFWGDDYKSHVKCISEGQKYGGKGYEAK”: the “soluble on expression in E. coli” value is on record as “soluble”.

On to “MGSDKIHHHHHHMEIEIATIGGYEEVGRQMTAVRAGDDIVIFDMGLNLSKVLVHDNVETEKMHSLDLIDMGAIPDDRVMSDLEGDVKAIVPTHGHLDHIGAISKLAHRYDAPIVGSPFTIELVKGEIESEQKFGVENDLVKMEAGGTMEIGDRCELEFVHVTHSIIDAINPVLHTPEGAVVYGLDKRMDHDPVLEDPIDMERFREIGREGEGVLCYIEDCTNAGKKGRTPSESTARRHLKDVLTSVADYDGGIVATTFSSHISRVSSLVEFAKEIGREPILLGRSMERYSGTAERMGRVNFPDDLGMFGHRKSVDRAFKRVMNEGKENFLPIVTGHQGEPQAMLTRMGRGETPYDIEDGDKIIFSASVIPEPTNKGQRYQSEQLLRMQGARIYDDIHVSGHLREEGHYQMLDALQPQHLIPAHQDMKGMAPYAKLAKSQGYKIGRDLHMTENGNTIQLVE”, for which the “soluble on expression in E. coli” value is “not soluble”.

For the sequence “MGSDKIHHHHHHMYLKGDFHIHTNASDGKYTPEKVLELAKTAGINILAITDHDTTSSVKKAIAVGNELGIKVLPGIELSTLKNGESIHILGYFRDISYENKDFQNFLTEMQNYRVWRAKKIVENLDTYFNIKLDYASILKEASNVIARPHIARAILAKGYNYTYEYIFNNILNKESPAYIPNKKVSVEEGIKLLKAANAVVVLAHPVLIKKTPIEDFLKLDFDGIEAIYPMNSESDTERFLSLAKIYNKLVTAGSDFHTDDSSDTKHGRIGEIYLDENNIDILLSK”, the “soluble on expression in E. coli” value is “not soluble”.

In the case of “MLLTNKGDVMLGLKQVHHIAIIATDYAVSKAFYCDILGFTLQSEVYREARDSWKGDLALNGQYVIELFSFPFPPERPSRPEACGLRHLAFSVDDIDAAVAHLESHNVKCEAIRVDPYTQKRFTFFNDPDGLPLELYEQ”, the “soluble on expression in E. coli” value is recorded as “not soluble”.

Turning to “MGSDKIHHHHHHMKILAFGEVLLRMTVPEHLMLTQTDELRMSTVGTGVNLLSSLTHFGYRTRLLSRLPDNALGQRAAGELRRYGIQDDYVTFGGQHMGAYFVELGYGSRPERVTYQDRLSSAFCQQPPDDQEIAAALVGCQFVHICGITLSLTAPVRQAALRLAQQAHANGQRVCFDFNYRQQLNTGVAHETLKARYQEILPYVDIVFGSKRDLTALLDYPDDEDRTQSANRESEAALYEQFVRDYHIDYFAGSYRYQIGQQKWFAGFSYQHQQLVVGKARPLMILDRIGSGDAFASGIITALIEGWSLQKTTDFAIATAILAQATVNDAPEFTKEMVLADMASDGQLELIR”, the “soluble on expression in E. coli” value is listed as “not soluble”.

Turning to “MSLNYNTPKVSIVVPSLNSISYIRECIDSILNQTLKDIEILCIDANSTDGTLEVLKNYEKKDKRLRVIISDKKSYGYQMNLGIKEAKGEYLGIVESDDYIKTNMYERLYEIAKKNDCEVVKGDFYIFAYGKTEYVNVLRNSCEDIYNYKVNWNKDIRIFLGSDGINPIGIYRLDLLRTNQIKLNETPGASYQDNGLWFQIFALAKSIYFINEAFYMLRRDNPNSSVKSKEKVYCACEEYDFIRDFLKKHPDLEKTLAPICALHRFGNYMFTLERIDERYKLDFLKRFSQDFRKILKDKELDENLFGNINMQRINKIIENPVIYYYFSRGARARLQNQLVYRLGKVVVEAKSFNKIIKLPFLMLKICLEHNFEHKVYRSIVQFRPDLKLLPLECYLDYHEALVIKEHLSYKFGKLILLSFKGWYKGKIFILPFMLKKRYKEYKNKMEGHHHHHH”, the “soluble on expression in E. coli” value is reported as “soluble”.

Take “MGSDKIHHHHHHMTVELKNILDLEKWEKLQESLALSTRLAIILVDYKGRPVTKHSQVQPFCQLVRHSPELSKLCEKCDARGGLEAVRTGQPFIYRCHFNIVDMAIPIIVDDQYVGAIMAGEVLLEDHQEELEQVLTMNDAFIQEFLVTHQELYQQYPVLELADLEKSATLIADLSQYIISEAIKKDYLINTYKQSLQISSRKEELEPLNMIQKDIQQTLLTAQLTPSSAYQTKNKQLQPVLDALWENKSLRLNLQELADLVHLTPTYLSRLLKEEFGIPFSQFYRQLKITWAKQLLLETDKTIAQISEDLGFVEDSYFVRIFKQETGETPLKYRKRKNRA”: the “soluble on expression in E. coli” value is given as “not soluble”.

On to “MSDKISFLPPEPIQLLDEDSTEPELDIDSQQENEGPISASNSNDSTSHSNDCGATITRTRPRRSSSINANFSFQKAHVSDCTIVNGDHGTKFAVWRITVFLEPNLKAFAAKRESYKIQTYKRYSDFVRLRENLLTRIKTAKPEKLNCLQIPHLPPSVQWYSSWKYQEVNLNKDWLAKRQRGLEYFLNHIILNSSLVEMTKDILIQFLEPSKRVA”, for which the “soluble on expression in E. coli” value is given as “soluble”.

In the case of “MGSDKIHHHHHHMAQMTSQTLYQALWNSADILRSKMDASEYKNYLLGLIFYKYLSDRMVVYASDQLEEKTTDLDKAQQIYTDAYNDKDLHDDLISNVSDEFGYHIQPDLTFTALIDKIDHGTFQLEDLSQSFRDIEQSSEFFSGLFEDVDLYSRKLGATPQKQNQVISDVMKQISTLDLVGQNTNDILGDAYEYLIGQFASDSGKNAGEFYTPQSVSRLITQIAMHGKEDVRGFTIYDPTMGSGSLLLNARRYSNERLSINYFGQELNTSTYNLARMNMILHGVPINNQHLHNADTLDQDWPIEEPTNFDAVVMNPPYSAHWQPSKGTENDPRFVSYGLAPKSKADFAFLLHGYYHLKDTGVMCIVLPHGVLFRGGAEGRIRKALLENGAIDTVIGLPANIFFNTSIPTTVTVLKKSRTTRDVLFIDASKEFEKAKNQNHLTDDNIQKILETCINRKDVDKYAHLASFDEIKENDFNLNIPRYVDTTEPEKPVDVVKVVADIKKNDEEIARLSSELAKNFDDLVANNDEAAKQLTALKELFKNE”, the “soluble on expression in E. coli” value is “not soluble”.

Consider “SAAAAFDPLGPLPVYLVSVRLGIYEDEHHRVWIVANVETSHSSHGNRRRTHVTVHLWKLIPQQVIPFNPLNYDFLPTTWKLESRNIYWATDGTHWRLLDHSQLGDTEQLILMLVLG”, for which the “soluble on expression in E. coli” value was “soluble”.

Take “GNDIDYSVGGSVSDAVSEVTEYANAKKNDPYGSWYTGRKVGEIWGYRAEGLIQTQEEADAYNAEYDLSYISGKLWEPGDVKYIDLDGNKVIDRGDNRLVDGDMGDQTIIGNTTPRYQYTFNGYISWKGLSLSVMFQGVGKRDWVAGGAYFWGFGPYAQVTVFKEHMDYWRPDNPGAYYPKPYINSAGGVAPYQDKNIQRTDLYLQNAAYCRLKNLTLSYDLPNAWVHKAGLQKVQVFFSGENLLTFTKLKGMFDPEAIFSSNSYTSEGGKNYPMNRVLSLGFIVNL”: the “soluble on expression in E. coli” value is recorded as “not soluble”.

Take “KQATMKNAALKQLTKDADEILHLIKVQLDNLTLPSCPLYEEVLDTQMFGLQKEVDFAVKLGLVDREDGKQIMLRLEKELSKLHEAFTLV”: the “soluble on expression in E. coli” value is “not soluble”.
